The source of these data is patent publication US20110123544A1 (published 2011).

Read-outs that look alike come from different tables or passages of the source.

Assay [1] addresses T1, recombinant human interleukin 12 (p40/p35 heterodimer) (human, UniProt P29460 23-328; P29459 23-219).
T1 chain 1: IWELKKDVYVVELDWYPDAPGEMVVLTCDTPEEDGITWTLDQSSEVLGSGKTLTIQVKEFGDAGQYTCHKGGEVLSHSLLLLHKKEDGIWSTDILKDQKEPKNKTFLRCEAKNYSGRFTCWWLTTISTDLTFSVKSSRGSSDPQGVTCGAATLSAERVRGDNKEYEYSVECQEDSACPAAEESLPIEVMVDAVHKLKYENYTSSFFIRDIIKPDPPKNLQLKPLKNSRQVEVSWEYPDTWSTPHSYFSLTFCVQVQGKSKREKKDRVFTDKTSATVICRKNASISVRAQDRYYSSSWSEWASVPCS
T1 chain 2: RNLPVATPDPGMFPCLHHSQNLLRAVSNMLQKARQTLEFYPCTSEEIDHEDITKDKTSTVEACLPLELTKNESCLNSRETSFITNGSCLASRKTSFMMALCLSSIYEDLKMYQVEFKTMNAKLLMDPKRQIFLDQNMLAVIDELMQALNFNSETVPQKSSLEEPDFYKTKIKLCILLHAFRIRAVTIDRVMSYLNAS
The experiment in a line: BIAcore.

The target in assay [2] is T1, recombinant human interleukin 12 …. As to the kind of experiment: BIAcore. Background: In SPR one partner is held on a chip, and binding of the other changes the refractive index at the surface.

In general, koff refers to a measure of how fast the partners let go of each other.

With CIRYDGSNKYYADSVKG [Y61 H50 C], the koff in assay [1] was 0.000285 s⁻¹.
The same measure, in the same setting: under FIRYQGSNKYYADSVKG [Y61 H53 Q] stands 0.000792 s⁻¹; under FILYDGSNKYYADSVKG [Y61 H52 L], 0.000347 s⁻¹.
On the same count and under the same terms, the result for FIRYSGSNKYYADSVKG [Y61 H53 S] reads 0.000368 s⁻¹.
With FTFSSTGMH [Y61 H32 T], the koff in assay [2] stood at 0.00148 s⁻¹.
Take FIRYEGSNKYYADSVKG [Y61 H53 E]: in assay [1], the koff was found to be 0.000399 s⁻¹.
For FTFWSYGMH [Y61 H30 W], the koff in assay [2] came out at 0.000216 s⁻¹.
Turning to FIRYDQSNKYYADSVKG [Y61 H54 Q], in assay [1], the koff was 0.000316 s⁻¹.
The same measure, in the same setting: under YIRYDGSNKYYADSVKG [Y61 H50 Y] stands 0.00023 s⁻¹.
On to FTFISYGMH [Y61 H30 I], for which, in assay [2], the koff came to 0.000207 s⁻¹.
On the same count and under the same terms, under FTFSSYNMH [Y61 H33 N] stands 0.000308 s⁻¹; under FTFSSIGMH [Y61 H32 I], 0.00161 s⁻¹.
For the molecule FIRYFGSNKYYADSVKG [Y61 H53 F], the koff in assay [1] was 0.00169 s⁻¹.
As for FTFTSYGMH [Y61 H30 T], the koff in assay [2] is 0.00032 s⁻¹.
For FIRYDDSNKYYADSVKG [Y61 H54 D], in assay [1], the koff was 0.000455 s⁻¹.
Take KIRYDGSNKYYADSVKG [Y61 H50 K]: the koff in assay [1] was determined as 0.000612 s⁻¹.
On the same count and under the same terms, under FIHYDGSNKYYADSVKG [Y61 H52 H] stands 0.000407 s⁻¹.
The same measure, in the same setting: the result for FIGYDGSNKYYADSVKG [Y61 H52 G] reads 0.000321 s⁻¹.
Take FTFSSHGMH [Y61 H32 H]: in assay [2], the koff was determined as 0.000461 s⁻¹.
In the case of FIRYAGSNKYYADSVKG [Y61 H53 A], the koff in assay [1] turned out to be 0.000404 s⁻¹.
With FIRYDRSNKYYADSVKG [Y61 H54 R], the koff in assay [1] stood at 2.5e-05 s⁻¹.
Regarding FTFSYYGMH [Y61 H31 Y], the koff in assay [2] amounted to 0.000398 s⁻¹.
As to FIRYDKSNKYYADSVKG [Y61 H54 K], the koff in assay [1] came out at 0.000407 s⁻¹.
For FIRYTGSNKYYADSVKG [Y61 H53 T], the koff in assay [1] came to 0.0005 s⁻¹.
Regarding FIRYDSSNKYYADSVKG [Y61 H54 S], the koff in assay [1] is 0.000373 s⁻¹.
Same read-out and setting: under FIVYDGSNKYYADSVKG [Y61 H52 V] stands 0.000317 s⁻¹; under EIRYDGSNKYYADSVKG [Y61 H50 E], 0.000347 s⁻¹.
FIAYDGSNKYYADSVKG [Y61 H52 A]: the koff in assay [1] is 0.000171 s⁻¹.
As for FIYYDGSNKYYADSVKG [Y61 H52 Y], the koff in assay [1] was 0.000298 s⁻¹.
Same read-out and setting: under FIRYDNSNKYYADSVKG [Y61 H54 N] stands 0.000447 s⁻¹; under LIRYDGSNKYYADSVKG [Y61 H50 L], 0.00044 s⁻¹.
The same measure, in the same setting: the result for FIKYDGSNKYYADSVKG [Y61 H52 K] reads 0.000262 s⁻¹.
On the same count and under the same terms, under FIRYDYSNKYYADSVKG [Y61 H54 Y] stands 0.000646 s⁻¹.
FIRYVGSNKYYADSVKG [Y61 H53 V]: the off-rate (koff) in assay [1] amounted to 0.00044 s⁻¹.
FTFGSYGMH [Y61 H30 G]: the koff in assay [2] was determined as 0.000233 s⁻¹.
In the case of FIRYNGSNKYYADSVKG [Y61 H53 N], in assay [1], the koff is 0.000727 s⁻¹.
Still for that read-out and setting: the result for FIRYYGSNKYYADSVKG [Y61 H53 Y] reads 0.000611 s⁻¹; that for FIRYLGSNKYYADSVKG [Y61 H53 L], 0.0011 s⁻¹; that for FIRYDESNKYYADSVKG [Y61 H54 E], 0.000351 s⁻¹.
Take FTFVSYGMH [Y61 H30 V]: in assay [2], the dissociation rate constant (koff) was found to be 0.000399 s⁻¹.
Consider NIRYDGSNKYYADSVKG [Y61 H50 N], for which the off-rate constant (koff) in assay [1] amounted to 0.000344 s⁻¹.
In the case of FTFKSYGMH [Y61 H30 K], the koff in assay [2] stood at 0.000225 s⁻¹.
QIRYDGSNKYYADSVKG [Y61 H50 Q]: the koff in assay [1] was found to be 0.00042 s⁻¹.
For FIRYRGSNKYYADSVKG [Y61 H53 R], the koff in assay [1] worked out at 0.00167 s⁻¹.
For FTFSNYGMH [Y61 H31 N], the koff in assay [2] is 0.000191 s⁻¹.
Same read-out and setting: under FTFSSNGMH [Y61 H32 N] stands 0.00297 s⁻¹.
Take FIEYDGSNKYYADSVKG [Y61 H52 E]: in assay [1], the koff came out at 0.000318 s⁻¹.
FIRYDVSNKYYADSVKG [Y61 H54 V]: the koff in assay [1] turned out to be 0.000435 s⁻¹.
As to FTFSIYGMH [Y61 H31 I], the koff in assay [2] was found to be 0.000334 s⁻¹.
In the case of TIRYDGSNKYYADSVKG [Y61 H50 T], the koff in assay [1] was found to be 0.000205 s⁻¹.
Regarding FIQYDGSNKYYADSVKG [Y61 H52 Q], the koff in assay [1] is 0.000285 s⁻¹.
For the molecule FTFSSRGMH [Y61 H32 R], the koff in assay [2] was found to be 0.00449 s⁻¹.
Turning to FIRYDTSNKYYADSVKG [Y61 H54 T], the koff in assay [1] was 0.000644 s⁻¹.
Consider FTFSSYPMH [Y61 H33 P], for which the koff in assay [2] worked out at 0.0016 s⁻¹.
The same measure, in the same setting: the result for FTFSSYDMH [Y61 H33 D] reads 0.00152 s⁻¹.
Take FISYDGSNKYYADSVKG [Y61 H52 S]: in assay [1], the koff came to 0.000292 s⁻¹.
On the same count and under the same terms, under FIWYDGSNKYYADSVKG [Y61 H52 W] stands 0.000351 s⁻¹.
On the same count and under the same terms, under FIRYKGSNKYYADSVKG [Y61 H53 K] stands 0.00158 s⁻¹; under HIRYDGSNKYYADSVKG [Y61 H50 H], 0.000309 s⁻¹.
For FTFSSYAMH [Y61 H33 A], the dissociation rate constant (koff) in assay [2] stood at 0.000273 s⁻¹.
Consider FITYDGSNKYYADSVKG [Y61 H52 T], for which, in assay [1], the koff is 0.000374 s⁻¹.
The same measure, in the same setting: under FIRYIGSNKYYADSVKG [Y61 H53 I] stands 0.000944 s⁻¹.
